Test results reported in the nanobody polyreactivity screen of Harvey et al. (2022).

Assay: yeast display, Sf9 membrane polyspecificity reagent, FACS + sequencing; frameworks hold sequencing errors
Method in brief: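 Nanobodies from a synthetic yeast display library (Saccharomyces cerevisiae BJ5465), induced 36–48 hours with galactose, were stained 1 hour at 4 °C with 10% biotinylated, detergent-solubilized Sf9 membrane reagent, enriched on streptavidin microbeads, then FACS-sorted. Anti-HA (expression) and streptavidin (reagent binding) fluorescence set low and high (top ~1%) gates. Polyreactivity labels come from the gate of origin. Genes were colony-PCR amplified, MiSeq 2 × 250 sequenced and filtered by CDR length.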

Row | Sequence | polyreactivity (PSR sort gate)
1 | QVQLVESGGGLVQAGGSLRLSCAASGSTFIGNAMGWYRQAPGKERELVAAITRSGGSTFYADSVKGRFTISRDNAKNTVYLQMNSLKPEDTAVYYCSAKGNPYRVPGSSYPKVNYWGQGTQVTVSS | high polyreactivity
2 | QVQLVESGGGLVQAGGSLRLSCAASGSTFIGYAMGWYRQAPGKDRELVAAITRSGGRTYYADSVKGRFTISRDNAKNTVYLQMNSLKPEVSAVYYCAARVKGQWNTYDYWGQGTQVTVSS | high polyreactivity
3 | QVQLVESGGGLVQAGGSLRLSCAASGSTFIHNAMGWYRQAPRKERELVAAITSGGSTYYADSVKGRFTISRDNAKNTVYLQMNSLKPEDTAVYYCNRGSWRYSTMEYWGQGTQVTVSS | high polyreactivity
4 | QVQLVESGGGLVQAGGSLRLSCAASGSTFIKNAMGWYRQAPGKERELVAAIPWGGGSTYYADSVKGRFTISRDNAKNTVYLQMNSLKPEDTAVYYCAAGNDIWRYYGYDYWGQGTQVTVSS | low polyreactivity
5 | QVQLVESGGGLVQAGGSLRLSCAASGSTFILKAMGWYRQAPGKERELVATISSSDTSPYYADSVKGRFTISRDTAKNTVYLQMNSLKPEDTAVYYCNADYYTTSYLQRVYHYGVDYDYWGQGTQVTVSS | low polyreactivity
6 | QVQLVESGGGLVQAGGSLRLSCAASGSTFILNAMGWYRQAPGKERELVATISSSDTSTYYADSVKGRFTISRDNAKNTVYLLMNSLKPDDTAVYFCNADYYTTSYLQRVYHYGVEYDYWGQGTQVTLSS | low polyreactivity
7 | QVQLVESGGGLVQAGGSLRLSCAASGSTFIPNAMGWYRQAPGKERELVAAITYRGGRTYYADSVKGRFTISRDNAKYTVYLQLNSLKPEDTAVYYCAADFWYNQVRFYYWGQGTQVTVSS | high polyreactivity
8 | QVQLVESGGGLVQAGGSLRLSCAASGSTFIPYAMGWYRQAPGKERELVARITWSDTSTYYADSVKGRFTISRDNAKNTVYLHMNSVKPEDTAVYYCAAKEFSLARGARPRYYYWGQGTQVTVSS | high polyreactivity
9 | QVQLVESGGGLVQAGGSLRLSCAASGSTFIRYAMGWYRQAPGKERELVAAITWRGGSTYYADSVKGRFTISRDNAKNTVYLQMNSLKPEDTAVYYCAARDRDTRNYYWGQGTQVTVSS | high polyreactivity
10 | QVQLVESGGGLVQAGGSLRLSCAASGSTFISNTMGWYRQAPGKERELVAAITRTGGRTYYADSVKGRFTISRDNAKNTVYLQMNSLKPEDTAVYYCARYGGYWSLKYDYWGQGTQVTVSS | high polyreactivity
11 | QVQLVESGGGLVQAGGSLRLSCAASGSTFISYAMGWYRQAPGKERELVAAISSGGGRTSYADSVKGRFTISRDNAKNTVYLQMNSLKPEDTAVYYCNTKKLPYAEGYWGQGTQVTVSS | low polyreactivity
12 | QVQLVESGGGLVQAGGSLRLSCAASGSTFISYAMGWYRQAPGKEREMVAAISWDGGSTYYADSVKGRFTISRDNAKNTVYLQMNSLKPEDTAVYYCNAEYDGAAGRYEYWGPGTQVTVSS | low polyreactivity
13 | QVQLVESGGGLVQAGGSLRLSCAASGSTFIWNGMGWYRQAPGKERELVAAITSSSTNYADSVKGRFTISRDNAKNTVYLQMNSLKPEDTAVYYCAAEIYPLGSLRLGPGEYDHWGQGTQVTVSS | low polyreactivity
14 | QVQLVESGGGLVQAGGSLRLSCAASGSTFIYNALGWYRQAPGKERELVAAISSGGSTYYADSVKGRFTISRDNAKNSVYLQMNSLKPEDTAVYYCAAKGFPRSGYPYQAQHMYYWGQGTQVTVSS | low polyreactivity
15 | QVQLVESGGGLVQAGGSLRLSCAASGSTFIYYAMGWNRQAPGKERELVDSISRSGGSTYYADSVKGRFTISRDNAKNTVYLQMNSLKPEDTAVYYCARAYRSSFNYWGQGTQVTVSS | high polyreactivity
16 | QVQLVESGGGLVQAGGSLRLSCAASGSTFIYYAMGWYRQAPGKEREFVAAISYRGGSTYYADSVKGRFTISRDNAKNTVYLQMNSLKPEDTAVYYCAASYRKWNDYWGQGTQVNVSS | high polyreactivity
17 | QVQLVESGGGLVQAGGSLRLSCAASGSTFIYYAMGWYRQAPGKERELVAAISGSGASTYYADSVKGRFTISRDNAKNTVYLQMNSLKPEDTAVYYCHFYRWRGYDYWGQGTQVTVSS | high polyreactivity
18 | QVQLVESGGGLVQAGGSLRLSCAASGSTFIYYTMGWYRQAPGKERELVAASSWSGGNTYYADSVKGRFTISRDNAKNTVYLQMNSLKPEDTAVYYCAATRFSQYDWGQGTQVTVSS | high polyreactivity
19 | QVQLVESGGGLVQAGGSLRLSCAASGSTFIYYVKGWYRQAPGNERELVAAISGRTGSTYYADSVKGRFTISRDNAKNTVYLQMNSLTPEDTAVYYCAKRGFLYWDHVSGFYRYDYWGQGTQVTVSS | low polyreactivity
20 | QVQLVESGGGLVQAGGSLRLSCAASGSTFKAYAMGWYRQAPGKERELVAAITKSGGRTYYADSVKGRFTISRDNAKNTVYLQMISLKPEDTAVYYCAAVFRPDSSAYRYYYWGQGTQVTVSS | high polyreactivity
21 | QVQLVESGGGLVQAGGSLRLSCAASGSTFKAYAMGWYRQAPGKERELVAAITKSGGRTYYADSVKGRFTISRDNAKNTVYLQMNSLKPEDTAVYYCAAVFRPDSSAYRYYYWGQGTQVTVSS | high polyreactivity
22 | QVQLVESGGGLVQAGGSLRLSCAASGSTFKAYAMGWYRQAPGKERELVAAITNSDGDTYYADSVKGRFTISRDNAKNTVYLQMNSLKAEDTAVYYCNALYFLKKLYDYWGQGTQVTVSS | low polyreactivity

Row | Sequence | polyreactivity (PSR sort gate)
23 | QVQLVESGGGLVQAGGSLRLSCAASGSTFKAYVMGWYRQAPGKERELVAVISRSGGTTYYADSVKGRFTISRDNAKNTVYLQMNSLKPEDTAVYYCAAQWRYQYPESLESYYWGQGTQVTVSS | high polyreactivity
24 | QVQLVESGGGLVQAGGSLRLSCAASGSTFKFYAMGWYRQAPGKERELVAAISRSGGSTYYADSVKGRFTLSRDNAKNTVYLQMNSLKPEDTAGYYCAAERTLKSDYWGQGTQVTVSS | high polyreactivity
25 | QVQLVESGGGLVQAGGSLRLSCAASGSTFKFYGVGWYRQAPGKERQLVASITSSSGPTYYADSVKGRFTISRDNAKYTVYLQLNSLKPEDPAVYDCNKAWRRYWLRGDYWGQGKQVTVSS | low polyreactivity
26 | QVQLVESGGGLVQAGGSLRLSCAASGSTFKIYAMGWYRQAPGKERELVAAITRGGSTNYADSVKGRFTISRDNAKNTVYLQMNSLKPEDTAVYYCAASYWYRRYGTYTYDYWGQGTQVTVSS | high polyreactivity
27 | QVQLVESGGGLVQAGGSLRLSCAASGSTFKIYAMGWYRQAPGKEREVVARITGRGGSTYYADSVKGRFTISRDNAKNTVYLQMNSLKPEDTAVYYCAAAKRYYSEMYWGQGTQVTVSS | high polyreactivity
28 | QVQLVESGGGLVQAGGSLRLSCAASGSTFKRNAMGWYRQAPGKERELVAAISFRGGSTYYADSVKGRFTISRDNAKNTVYLQMNSLKPEDTAVYYCAAGIYRIRGGGISFDYWGQGTQVTVSS | high polyreactivity
29 | QVQLVESGGGLVQAGGSLRLSCAASGSTFKRYAMGWYRQAPGKERELVAAISRRGGSTYYADSVKGRFTISRDNAKNTVYLQMNSLKPEDTAVYYCAARIASHLYYYWGQGTQVTVSS | high polyreactivity
30 | QVQLVESGGGLVQAGGSLRLSCAASGSTFKRYAMGWYRQAPGKERELVASISQRGGTTYYADSVKGRFTISRDNAKNTVDLQMNSLKPEDTAVYYCAKGFGWTRTIYDYWGQGTQVTVSS | high polyreactivity
31 | QVQLVESGGGLVQAGGSLRLSCAASGSTFKRYARGWYRQAPGKEREFVAGISSRGSRTYYADSVKGRFTISRDNAKNTVYLQMNSLKPEDTAVYYCAVSGNHVSPPYGYWGQGTQVTVSS | high polyreactivity
32 | QVQLVESGGGLVQAGGSLRLSCAASGSTFKRYSMGWYRQAPGKERELVASISGRGGGTYYADSVKGRFTISRDNEKNTVYLQMNSLIPEDTAVYYCAAYGRYYGFDYWGLGTQVTVSS | high polyreactivity
33 | QVQLVESGGGLVQAGGSLRLSCAASGSTFKWYAMGWYRQAPGKERELVAAISSRGGSTYYADSVKGRFTISRDNAKNTVYLQMNSLKPEDTAVYYCNALVRPQWSYNDFDYWGQGTQVTVSS | high polyreactivity
34 | QVQLVESGGGLVQAGGSLRLSCAASGSTFKWYAMGWYRQAPGKERELVAGISWTGASTYYADSVKGRFTISRDNAKNTVYLQMNSLKPDDTAVYYCAADRTYFALLWTGRARYDYWGQGTQVTVSS | high polyreactivity
35 | QVQLVESGGGLVQAGGSLRLSCAASGSTFKWYGMGWYRQAPGKERELVATINYSSSTTYYADSVKGRFTISRDNAKNTVYLQMNSLKPEDTAVYYCAKGVYWGTKSTYDYWGQGTQVTVSS | high polyreactivity
36 | QVQLVESGGGLVQAGGSLRLSCAASGSTFKYNTMGWYRQAPGKERELVATISTGGSTYYADSVKGRFTISRDNAKNTVYLQMNSLKPEDTAVYYCAADGARRNTYRYDYWGQGTQVTVSS | low polyreactivity
37 | QVQLVESGGGLVQAGGSLRLSCAASGSTFKYYAMGWYRQAPGKERELVARISSGGNTKYADSVKGRFTISRDNAMNTVYLQMNSLKPEDTAVYYCAAGYPGVGYAYDYWGQGTQVTVSS | high polyreactivity
38 | QVQLVESGGGLVQAGGSLRLSCAASGSTFKYYPMGWYRQAPGKERELVAAITSTGSTNYADSVKGRFTISRDNAKNTVYLQMNSRKPEDTAVYYCAKKYFYSTYYSWGHGTQVTVSS | low polyreactivity
39 | QVQLVESGGGLVQAGGSLRLSCAASGSTFLDYAMGWYRQAPGKDRELVAAISTDDSSTYYADSVKGRFTISRDNAKNTVYLQMNSLKPEDTAVYYCAADDRDWVNFDYWGQGTQVTVSS | low polyreactivity
40 | QVQLVESGGGLVQAGGSLRLSCAASGSTFLEYARGWSRQAPGKERELVATITGGGGTNYADSVKGRFTISRDNAKNTVYLQMNSLKPEETAVYYCAADYGGAYEYGYWGQGTQVTVSS | low polyreactivity
41 | QVQLVESGGGLVQAGGSLRLSCAASGSTFLFYAMGWYRQAPGKERELVAAISSSGTSTYYADSVKGRFTISRDNAKNTVYLQMNSLKPEDTAVYYCAAVDPYERYVYWGQGTQVTVSS | low polyreactivity
42 | QVQLVESGGGLVQAGGSLRLSCAASGSTFLFYDMGWYRHAAGKERELVAAIRWSGGSTYADSVKGRFTISRDNAKNTVYLQMNSLKPVDTAVYYCATTYRPTFRRHYNYWGQGTQVTVSS | low polyreactivity
43 | QVQLVESGGGLVQAGGSLRLSCAASGSTFLGYTMGWSRQAPGKERELVATITRRGGRTSYADSVKGRFTISRDNAKNTVYLQMNSLKPEDTAVYYCATDSKRSSVPWNTYDYWGQGTQVTVSS | high polyreactivity
